Experimental data: the supplement of paper PMC9732359
± gives the uncertainty stated by the source.

Experiment: protein stability index of a GFP-peptide fusion (yeast GPS) (PSI 1-4); higher = more stable; sorted into four equal gates, so the index is relative within each strain
Procedure, shortened: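 The protein stability index of a peptide was calculated by multiplying its read frequency in each gate by that gate's number and adding the products. The peptides were tiled 17-residue stretches of yeast proteins, fused downstream of GFP on a Cherry-expressing plasmid and carried in yeast as a pooled library. Mid-log cultures in leucine-free medium were sorted into four equal gates by GFP/Cherry ratio, and each gate's plasmids were PCR-amplified and Illumina-sequenced.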

| Sequence | protein stability index (doa10∆) | protein stability index (pdr5∆) | protein stability index (san1∆) | protein stability index (ubr1∆) |
| --- | --- | --- | --- | --- |
| GKRIAYVYRASKEVRGS [RPL33A] | 2.8 ± 0.063 | 2.57 ± 0.08 | 2.43 ± 0.064 | 2.73 ± 0.047 |
| RNNVANKQPRNESFNRR [YAR002W/NUP60] | 3.04 ± 0.088 | 3.41 ± 0.18 | 2.31 ± 0.12 | 3.24 ± 0.14 |
| LAKSGSTEETTANTGTI [TAF14] | 2.61 ± 0.08 | 2.27 ± 0.089 | 2.19 ± 0.14 | 2.39 ± 0.091 |
| FDNYQRNNFLAENSHTQ [PUP1] | 3.3 ± 0.081 | 3.26 ± 0.075 | 3.17 ± 0.058 | 3.19 ± 0.044 |
| KRQLIKERNQKFQLQNQ [YIL149C/MLP2] | 2.75 ± 0.096 | 3.17 ± 0.11 | 2.99 ± 0.059 | 2.78 ± 0.05 |
| KPKKPKGRAYKRLLYTR [RPS30A] | 3.13 ± 0.098 | 2.79 ± 0.11 | 3.02 ± 0.086 | 2.99 ± 0.055 |
| IFALVFSSNERYFFWLQ [RPN13] | 1.25 ± 0.046 | 1.61 ± 0.07 | 1.65 ± 0.08 | 1.87 ± 0.046 |
| GRVTFIPLNRLSLDSDV [SMC3] | 2.65 ± 0.09 | 2.9 ± 0.053 | 2.85 ± 0.063 | 3.09 ± 0.058 |
| IDKLSDVVMKATEPQMV [PRP8] | 2.38 ± 0.063 | 2.71 ± 0.064 | 2.42 ± 0.065 | 2.28 ± 0.055 |
| TDRLSTTQRRYEKAQKD [SMC1] | 3.33 ± 0.14 | 3.23 ± 0.095 | 2.63 ± 0.14 | – |
| LRLKLFLYEILSSLKSF [SRB8] | 1.53 ± 0.063 | 2.29 ± 0.082 | 1.81 ± 0.082 | 2.11 ± 0.085 |
| KTQQNEKSENGENDDDT [RPN3] | 3.04 ± 0.19 | 3.41 ± 0.18 | 2.92 ± 0.13 | 3.34 ± 0.11 |
| AVSIETALEHKVVNGNS [FAS2] | 2.14 ± 0.18 | 1.37 ± 0.1 | 1.34 ± 0.12 | 1.4 ± 0.051 |
| SKSAPSKKISNTAAALV [YAR002W/NUP60] | 3.1 ± 0.067 | 2.97 ± 0.068 | 3.12 ± 0.041 | 3.14 ± 0.048 |
| VAAFVNNYPNVELTYSL [BRR2] | 2.61 ± 0.11 | 2.82 ± 0.087 | 2.74 ± 0.082 | 2.9 ± 0.087 |
| FNNEKETEKFALERNWP [RPN12] | 2.68 ± 0.07 | 2.63 ± 0.055 | 2.76 ± 0.041 | 2.84 ± 0.037 |
| PIGRHEELLAQYESQAP [SWP82] | 2.35 ± 0.057 | 2.25 ± 0.063 | 2.07 ± 0.1 | 2.07 ± 0.037 |
| HQGSGGSVMSASVEIVF [SMC3] | 2.05 ± 0.11 | 2.56 ± 0.081 | 2.4 ± 0.082 | 2.26 ± 0.091 |
| DDVISNAGTNDNSFNEL [MCD1] | 3.31 ± 0.15 | 3.37 ± 0.12 | 3.31 ± 0.06 | 3.44 ± 0.084 |
| GVEVRVTPTKTEVIIRA [RPS3] | 1.75 ± 0.048 | 1.73 ± 0.047 | 2.55 ± 0.071 | 1.57 ± 0.036 |
| GGQTKPVFHKKAKTTKK [RPL42A] | 2.72 ± 0.056 | 2.94 ± 0.076 | 2.73 ± 0.064 | 2.89 ± 0.045 |
| PKSASNTSSKRQKKKPT [IRR1] | 2.78 ± 0.069 | 2.61 ± 0.072 | 2.65 ± 0.049 | 2.96 ± 0.072 |
| KSAMDTFKSVSKYGMLL [POP3] | 2.41 ± 0.063 | 2.87 ± 0.056 | 2.7 ± 0.07 | 2.45 ± 0.055 |
| WKNLVLKLSQAFGSSAT [YJR042W/NUP85] | 2.58 ± 0.055 | 1.95 ± 0.053 | 2.22 ± 0.055 | 1.93 ± 0.044 |
| ESNDRINKIVEILTNQQ [YGR119C/NUP57] | – | 2.77 ± 0.23 | 2.57 ± 0.13 | 2.23 ± 0.085 |
| GEGSTVNASVDVDQHGN [SWI3] | – | 3.47 ± 0.17 | 2.87 ± 0.29 | 3.35 ± 0.19 |
| QRCKSNAISLQLKYDTS [YIL149C/MLP2] | 1.78 ± 0.062 | 1.66 ± 0.054 | 1.86 ± 0.12 | 1.79 ± 0.047 |

| Sequence | protein stability index (doa10∆) | protein stability index (pdr5∆) | protein stability index (san1∆) | protein stability index (ubr1∆) |
| --- | --- | --- | --- | --- |
| CSKSIPKDKAIKRMAIR [RPS26A] | 2.8 ± 0.069 | 2.96 ± 0.073 | 2.73 ± 0.065 | 2.85 ± 0.046 |
| RLAPLIKEENDMENMAD [ARP7] | 3.75 ± 0.23 | 3.65 ± 0.15 | 2.88 ± 0.14 | – |
| GRRWNELRRFESSINTH [SKI6] | – | 2.66 ± 0.12 | 2.01 ± 0.13 | 2.41 ± 0.13 |
| HDNHGNKLGNKRLTEDE [CDC53] | 2.51 ± 0.091 | 2.84 ± 0.069 | 2.37 ± 0.052 | 3.17 ± 0.06 |
| MTTFRFCRDCNNMLYPR [RPB9] | 2.78 ± 0.14 | 3.14 ± 0.11 | 3.41 ± 0.14 | 2.99 ± 0.068 |
| MYTRLCICSGMLFEMDG [SIN4] | 1.45 ± 0.038 | 1.41 ± 0.038 | 1.48 ± 0.073 | 1.42 ± 0.029 |
| IEWCSRCNDNLMRSCFY [YJL039C/NUP192] | 3.17 ± 0.089 | 2.68 ± 0.085 | 2.9 ± 0.067 | 2.69 ± 0.083 |
| GDIVRMLETAGFSMNNP [SMC3] | 3.08 ± 0.095 | 3.26 ± 0.1 | 3.04 ± 0.089 | 3.16 ± 0.054 |
| PFFARFKLRIQTTEGYD [RPB11] | – | 1.37 ± 0.12 | 1.37 ± 0.26 | – |
| RVKVHFDQAGKKVSRRN [RPL13A] | 3.46 ± 0.12 | 3.37 ± 0.1 | 3.26 ± 0.12 | 3.31 ± 0.079 |
| EDVLVNQILMSVNFFVS [RPL1A] | 1.91 ± 0.044 | 2.4 ± 0.045 | 2.08 ± 0.068 | 2.23 ± 0.035 |
| QGNPKKRPGKLSDYIPG [CYT1] | 3.17 ± 0.066 | 3.24 ± 0.067 | 3.23 ± 0.044 | 3.17 ± 0.032 |
| RYLAVTLQDIGFYQIKK [YMR129W/POM152] | 2.53 ± 0.046 | 2.65 ± 0.043 | 2.73 ± 0.068 | 2.62 ± 0.043 |
| ICYDVNDWQMLEMLKPC [RPB2] | 2.62 ± 0.063 | 2.67 ± 0.086 | 2.46 ± 0.073 | 2.61 ± 0.062 |
| VASLSKRNKLLTIFDSV [YJL039C/NUP192] | 1.98 ± 0.059 | 1.93 ± 0.048 | 2.28 ± 0.063 | 1.89 ± 0.048 |
| NRTMDGKPVSLPLLYNF [FAS1] | 3.08 ± 0.093 | 3.31 ± 0.1 | 2.7 ± 0.072 | 2.93 ± 0.073 |
| MLLEEQLEYKRGEIREI [MED7] | – | 2.92 ± 0.28 | 2.69 ± 0.29 | – |
| ALLRENQDSVKTYALES [RPN2] | 3.35 ± 0.15 | 2.56 ± 0.16 | 2.56 ± 0.12 | 2.94 ± 0.1 |
| IQAVFCLTKFQDEEQTE [YCG1] | 2.23 ± 0.057 | 2.24 ± 0.062 | 2.64 ± 0.057 | 2.82 ± 0.06 |
| NKLSGILADEMGLGKTL [ISW2] | 3.1 ± 0.088 | 3.23 ± 0.13 | 3.15 ± 0.049 | 2.68 ± 0.096 |
| LKIYYKEEFSSDESIER [RRI2] | – | 2.43 ± 0.15 | 2 ± 0.23 | 2.9 ± 0.11 |
| MQDPDGIDINTKIFNSV [YCG1] | 2.93 ± 0.21 | 3.04 ± 0.12 | 2.54 ± 0.17 | 2.89 ± 0.068 |
| AVGNLGNAIEVTEDGSI [RPL22B] | 1.16 ± 0.13 | 1.45 ± 0.098 | 1.24 ± 0.19 | 1.27 ± 0.05 |
| VATEPLLDILVKGETRI [PRP8] | 2.43 ± 0.057 | 2.41 ± 0.044 | 2.94 ± 0.06 | 1.8 ± 0.032 |
| IRKLTLRDTFIELDQVL [RPO21] | 2.31 ± 0.12 | 2.89 ± 0.079 | 2.7 ± 0.074 | 2.23 ± 0.11 |
| VSNPIRKVFKPSQGMVV [FAS1] | 3.08 ± 0.068 | 2.74 ± 0.061 | 2.87 ± 0.14 | 2.66 ± 0.068 |
